Reference: patent US20150344570A1 (published 2015)

T1: FcγRIIb extracellular domain with C-terminal His tag (human, UniProt P31994 43-217)
T1 construct: extracellular domain; also called FcgRIIb; 2b; not shown: His tag at the C terminus
T1 sequence (looked up): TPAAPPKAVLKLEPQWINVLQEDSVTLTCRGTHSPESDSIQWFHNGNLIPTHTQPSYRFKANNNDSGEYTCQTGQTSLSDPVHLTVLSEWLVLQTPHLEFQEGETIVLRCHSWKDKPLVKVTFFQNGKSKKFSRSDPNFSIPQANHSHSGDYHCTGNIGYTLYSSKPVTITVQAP


Assays:
[1] = target: T2, FcγRIIIa extracellular domain with C-terminal His tag (human, UniProt P08637 17-208); test: SPR (Biacore); He/Con_3a divided by He/Con_2b (FcγRIIb)
T2 construct: extracellular domain; also called FcgRIIIa; 3a; not shown: His tag at the C terminus

[2] = target: T2, FcγRIIIa extracellular domain with …; test: SPR (Biacore), FcγR as analyte over captured antibody; GpH7-A5/GpH7-B3/GpL16-k0 = 100
[3] = target: T1, FcγRIIb extracellular domain with …; test: as above
[4] = target: T3, FcγRIa (human, UniProt P12314 16-292); test: SPR (Biacore), relative binding; control HoCon Ab GpH7-B3/GpL16-k0
T3 construct: extracellular domain; also called FcgRI; FcgRIa; not shown: His tag attached to the C terminus
T3 sequence (P12314 16-292): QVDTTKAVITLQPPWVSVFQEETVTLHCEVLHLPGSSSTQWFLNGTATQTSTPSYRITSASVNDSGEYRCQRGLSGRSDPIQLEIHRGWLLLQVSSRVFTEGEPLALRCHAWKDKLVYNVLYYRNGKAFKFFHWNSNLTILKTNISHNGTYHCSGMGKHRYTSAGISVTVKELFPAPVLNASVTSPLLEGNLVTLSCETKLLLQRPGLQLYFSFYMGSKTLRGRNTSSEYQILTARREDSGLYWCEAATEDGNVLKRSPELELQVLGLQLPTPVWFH

T2 sequence (P08637 17-208): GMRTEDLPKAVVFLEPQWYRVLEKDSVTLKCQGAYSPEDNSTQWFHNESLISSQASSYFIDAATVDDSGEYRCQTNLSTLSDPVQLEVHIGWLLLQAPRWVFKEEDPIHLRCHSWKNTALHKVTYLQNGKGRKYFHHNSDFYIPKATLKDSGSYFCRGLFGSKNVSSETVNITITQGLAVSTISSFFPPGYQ

Row | Binder | He_3a/2b (IIIa/IIb) [1] | He/Con_3a [2] | He/Con_2b [3] | Ho/Con_1a [4]
1 | GpH7-A5/GpH7-B3 variant S298_05P/GpL16-k0 (antibody, human IgG1, kappa, Heterodimerized IgG1 antibody; alteration in the GpH7-B3 chain only; also called He Ab) heavy 1: not shown heavy 2: not shown light: DIVMTQSPLSLPVTPGEPASISCQASESLVHSNRNTYLHWYLQKPGQSPQLLIYKVSNRFSGVPDRFSGSGSGTDFTLKISRVEAEDVGVYYCSQNTHVPPTFGQGTKVEIERTVAAPSVFIFPPSDEQLKSGTASVVCLLNNFYPREAKVQWKVDNALQSGNSQESVTEQDSKDSTYSLSSTLTLSKADYEKHKVYACEVTHQGLSSPVTKSFNRGEC | 0.69 ratio | 8.2 % of control | 11.9 % of control | 
2 | GpH7-B3 variant K334_01G/GpL16-k0 (antibody, human IgG1, kappa, Alteration in both H chains; also called Ho Ab K334_01G) heavy: not shown light: DIVMTQSPLSLPVTPGEPASISCQASESLVHSNRNTYLHWYLQKPGQSPQLLIYKVSNRFSGVPDRFSGSGSGTDFTLKISRVEAEDVGVYYCSQNTHVPPTFGQGTKVEIERTVAAPSVFIFPPSDEQLKSGTASVVCLLNNFYPREAKVQWKVDNALQSGNSQESVTEQDSKDSTYSLSSTLTLSKADYEKHKVYACEVTHQGLSSPVTKSFNRGEC |  |  |  | 106 % of control (=100)
3 | GpH7-B3 variant K326_08L/GpL16-k0 (antibody, human IgG1, kappa, Alteration in both H chains; also called Ho Ab K326_08L) heavy: not shown light: DIVMTQSPLSLPVTPGEPASISCQASESLVHSNRNTYLHWYLQKPGQSPQLLIYKVSNRFSGVPDRFSGSGSGTDFTLKISRVEAEDVGVYYCSQNTHVPPTFGQGTKVEIERTVAAPSVFIFPPSDEQLKSGTASVVCLLNNFYPREAKVQWKVDNALQSGNSQESVTEQDSKDSTYSLSSTLTLSKADYEKHKVYACEVTHQGLSSPVTKSFNRGEC |  |  |  | 101 % of control (=100)
4 | GpH7-B3 variant K326_04F/GpL16-k0 (antibody, human IgG1, kappa, Alteration in both H chains; also called Ho Ab K326_04F) heavy: not shown light: DIVMTQSPLSLPVTPGEPASISCQASESLVHSNRNTYLHWYLQKPGQSPQLLIYKVSNRFSGVPDRFSGSGSGTDFTLKISRVEAEDVGVYYCSQNTHVPPTFGQGTKVEIERTVAAPSVFIFPPSDEQLKSGTASVVCLLNNFYPREAKVQWKVDNALQSGNSQESVTEQDSKDSTYSLSSTLTLSKADYEKHKVYACEVTHQGLSSPVTKSFNRGEC |  |  |  | 102 % of control (=100)
5 | GpH7-B3 variant K326_07I/GpL16-k0 (antibody, human IgG1, kappa, Alteration in both H chains; also called Ho Ab K326_07I) heavy: not shown light: DIVMTQSPLSLPVTPGEPASISCQASESLVHSNRNTYLHWYLQKPGQSPQLLIYKVSNRFSGVPDRFSGSGSGTDFTLKISRVEAEDVGVYYCSQNTHVPPTFGQGTKVEIERTVAAPSVFIFPPSDEQLKSGTASVVCLLNNFYPREAKVQWKVDNALQSGNSQESVTEQDSKDSTYSLSSTLTLSKADYEKHKVYACEVTHQGLSSPVTKSFNRGEC |  |  |  | 102 % of control (=100)

More lines, now with the values ahead:

Row | He_3a/2b (IIIa/IIb) [1] | He/Con_3a [2] | He/Con_2b [3] | Ho/Con_1a [4] | Binder
6 |  |  |  | 104 % of control (=100) | GpH7-B3 variant K326_06M/GpL16-k0 (antibody, human IgG1, kappa, Alteration in both H chains; also called Ho Ab K326_06M) heavy: not shown light: DIVMTQSPLSLPVTPGEPASISCQASESLVHSNRNTYLHWYLQKPGQSPQLLIYKVSNRFSGVPDRFSGSGSGTDFTLKISRVEAEDVGVYYCSQNTHVPPTFGQGTKVEIERTVAAPSVFIFPPSDEQLKSGTASVVCLLNNFYPREAKVQWKVDNALQSGNSQESVTEQDSKDSTYSLSSTLTLSKADYEKHKVYACEVTHQGLSSPVTKSFNRGEC
7 | 0.69 ratio | 54.5 % of control | 79.3 % of control |  | GpH7-A5/GpH7-B3 variant Y296_01G/GpL16-k0 (antibody, human IgG1, kappa, Heterodimerized IgG1 antibody; alteration in the GpH7-B3 chain only; also called He Ab) heavy 1: not shown heavy 2: not shown light: DIVMTQSPLSLPVTPGEPASISCQASESLVHSNRNTYLHWYLQKPGQSPQLLIYKVSNRFSGVPDRFSGSGSGTDFTLKISRVEAEDVGVYYCSQNTHVPPTFGQGTKVEIERTVAAPSVFIFPPSDEQLKSGTASVVCLLNNFYPREAKVQWKVDNALQSGNSQESVTEQDSKDSTYSLSSTLTLSKADYEKHKVYACEVTHQGLSSPVTKSFNRGEC
8 |  |  |  | 110 % of control (=100) | GpH7-B3 variant I336_15Y/GpL16-k0 (antibody, human IgG1, kappa, Alteration in both H chains; also called Ho Ab I336_15Y) heavy: not shown light: DIVMTQSPLSLPVTPGEPASISCQASESLVHSNRNTYLHWYLQKPGQSPQLLIYKVSNRFSGVPDRFSGSGSGTDFTLKISRVEAEDVGVYYCSQNTHVPPTFGQGTKVEIERTVAAPSVFIFPPSDEQLKSGTASVVCLLNNFYPREAKVQWKVDNALQSGNSQESVTEQDSKDSTYSLSSTLTLSKADYEKHKVYACEVTHQGLSSPVTKSFNRGEC
9 | 0.78 ratio | 104 % of control | 134 % of control |  | GpH7-A5/GpH7-B3 variant Y300_10E/GpL16-k0 (antibody, human IgG1, kappa, Heterodimerized IgG1 antibody; alteration in the GpH7-B3 chain only; also called He Ab) heavy 1: not shown heavy 2: not shown light: DIVMTQSPLSLPVTPGEPASISCQASESLVHSNRNTYLHWYLQKPGQSPQLLIYKVSNRFSGVPDRFSGSGSGTDFTLKISRVEAEDVGVYYCSQNTHVPPTFGQGTKVEIERTVAAPSVFIFPPSDEQLKSGTASVVCLLNNFYPREAKVQWKVDNALQSGNSQESVTEQDSKDSTYSLSSTLTLSKADYEKHKVYACEVTHQGLSSPVTKSFNRGEC
